Columns and labels:
[1] = molecular target: wild-type human APC segment 3 of Exon 15 (codons 1,099 to 1,696) with N-terminal VSV-G and HSV epito (human) (UniProt P25054)
[2] = molecular target: human glutathione-s-transferase A2 (GST A2), cell-free expressed from pETBlue-2 with C-terminal HSV epitope tag and polyhistidine tag (human) (UniProt P09210); test: cell-free expressed HSV-tagged GST captured on anti-HSV PC-antibody NeutrAvidin agarose beads; fractions quantified by fluorescence SDS-PAGE
Chain of human glutathione-s-transferase A2 (GST A2), cell-free expressed from pETBlue-2 with C-terminal HSV epitope tag and polyhistidine tag (human) (P09210 other isoform, or with tags, fused parts or gaps): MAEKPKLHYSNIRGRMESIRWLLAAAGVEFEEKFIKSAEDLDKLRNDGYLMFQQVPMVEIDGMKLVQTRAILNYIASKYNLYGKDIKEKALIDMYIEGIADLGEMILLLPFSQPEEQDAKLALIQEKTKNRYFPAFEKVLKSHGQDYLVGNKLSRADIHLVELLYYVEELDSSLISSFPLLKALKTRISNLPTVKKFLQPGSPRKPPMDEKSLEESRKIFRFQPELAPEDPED

[3] = molecular target: human alpha-tubulin, cell-free expressed with C-terminal HSV epitope tag and polyhistidine tag (human) (UniProt P50607); test: protein adsorbed to polystyrene 96-well plate, anti-HSV-AP chemiluminescence; against the minus DNA negative control
[4] = molecular target: human p53 oncoprotein (cellular tumor antigen p53), cell-free expressed from pETBlue-2 with C-terminal HSV epitope tag and polyhistidine tag (human) (UniProt P04637); test: as above
[5] = molecular target: human glutathione-s-transferase A2 (GST A2), cell-free expressed from pETBlue-2 with C-terminal HSV epitope tag and polyhistidine tag (human) (UniProt P09210); test: antibody-protein complex photo-released from beads, held on nickel chelate plate by the protein's polyhistidine tag; bound anti-HSV antibody read with anti-[mouse IgG] HRP; against the minus DNA negative control
[6] = molecular target: human dihydrofolate reductase (DHFR), cell-free expressed with C-terminal HSV and polyhistidine epitope tags (human) (UniProt P00374); test: as above
[7] = molecular target: human glutathione-s-transferase A2 (GST A2), cell-free expressed from pETBlue-2 with C-terminal HSV epitope tag and polyhistidine tag (human) (UniProt P09210); test: BODIPY-FL labelled GST photo-released from magnetic beads and captured on anti-HSV antibody coated substrate; against the minus DNA blank

Chain of wild-type human APC segment 3 of Exon 15 (codons 1,099 to 1,696) with N-terminal VSV-G and HSV epito (human) (P25054 other isoform, or with tags, fused parts or gaps limits assumed): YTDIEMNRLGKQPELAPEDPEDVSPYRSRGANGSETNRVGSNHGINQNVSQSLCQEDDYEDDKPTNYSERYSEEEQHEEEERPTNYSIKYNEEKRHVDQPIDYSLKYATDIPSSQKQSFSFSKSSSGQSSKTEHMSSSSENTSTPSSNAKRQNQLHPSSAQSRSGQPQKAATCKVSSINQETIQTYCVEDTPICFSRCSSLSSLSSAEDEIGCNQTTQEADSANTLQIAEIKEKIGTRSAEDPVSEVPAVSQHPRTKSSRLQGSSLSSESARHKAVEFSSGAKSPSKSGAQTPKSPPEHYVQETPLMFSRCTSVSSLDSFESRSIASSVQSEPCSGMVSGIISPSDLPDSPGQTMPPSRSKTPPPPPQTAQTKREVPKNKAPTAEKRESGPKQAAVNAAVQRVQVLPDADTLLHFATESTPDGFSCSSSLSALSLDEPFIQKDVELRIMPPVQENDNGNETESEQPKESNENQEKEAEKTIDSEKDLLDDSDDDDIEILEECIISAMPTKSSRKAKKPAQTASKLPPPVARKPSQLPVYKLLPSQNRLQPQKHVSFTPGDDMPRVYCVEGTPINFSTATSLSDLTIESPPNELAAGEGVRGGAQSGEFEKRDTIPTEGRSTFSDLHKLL

Substance	signal to noise ratio [1]	percent of total GST bound [2]	percent of total GST not bound [2]	signal to noise ratio [3]	signal to noise ratio [4]	signal to noise ratio [5]	signal to noise ratio [6]	signal to noise ratio [7]
anti-VSV antibody conjugated to the Cy3 fluorophore (clone P5D4; Sigma-Aldrich, St. Louis, Mo.)	186 :1							
mouse monoclonal anti-HSV tag antibody (EMD Biosciences, Inc., San Diego, Calif.)		75%	25%	140 :1	609 :1	108 :1	19 :1	9 :1

Source: patent US20180017550A1
